Results taken from patent US20110014193A1 (JURIDICAL FDN THE CHEMO SERO THERAPEUTIC RES INST, published 2011).
Numbering of substitutions follows the chain as printed. Numbers in names are those of the source. Like-named read-outs stand apart in the source and are kept apart here.

What was measured:
Test in all cases: cell-based or functional assay
[1] = biological target: T1, human α9 integrin molecule (human, UniProt Q13797 30-1035; P05556 21-798)
[2] = biological target: T1, human α9 integrin molecule; remark: listed apart in the source
[3] = biological target: T1, human α9 integrin molecule; remark: listed apart in the source
[4] = biological target: T1, human α9 integrin molecule; remark: listed apart in the source
[5] = biological target: T1, human α9 integrin molecule; remark: listed apart in the source
[6] = biological target: T1, human α9 integrin molecule; remark: listed apart in the source
[7] = biological target: T1, human α9 integrin molecule; remark: listed apart in the source
[8] = biological target: T1, human α9 integrin molecule; remark: listed apart in the source
[9] = biological target: T1, human α9 integrin molecule; remark: listed apart in the source

T1 sequence (Q13797 30-1035 limits assumed, chain 1 of 2): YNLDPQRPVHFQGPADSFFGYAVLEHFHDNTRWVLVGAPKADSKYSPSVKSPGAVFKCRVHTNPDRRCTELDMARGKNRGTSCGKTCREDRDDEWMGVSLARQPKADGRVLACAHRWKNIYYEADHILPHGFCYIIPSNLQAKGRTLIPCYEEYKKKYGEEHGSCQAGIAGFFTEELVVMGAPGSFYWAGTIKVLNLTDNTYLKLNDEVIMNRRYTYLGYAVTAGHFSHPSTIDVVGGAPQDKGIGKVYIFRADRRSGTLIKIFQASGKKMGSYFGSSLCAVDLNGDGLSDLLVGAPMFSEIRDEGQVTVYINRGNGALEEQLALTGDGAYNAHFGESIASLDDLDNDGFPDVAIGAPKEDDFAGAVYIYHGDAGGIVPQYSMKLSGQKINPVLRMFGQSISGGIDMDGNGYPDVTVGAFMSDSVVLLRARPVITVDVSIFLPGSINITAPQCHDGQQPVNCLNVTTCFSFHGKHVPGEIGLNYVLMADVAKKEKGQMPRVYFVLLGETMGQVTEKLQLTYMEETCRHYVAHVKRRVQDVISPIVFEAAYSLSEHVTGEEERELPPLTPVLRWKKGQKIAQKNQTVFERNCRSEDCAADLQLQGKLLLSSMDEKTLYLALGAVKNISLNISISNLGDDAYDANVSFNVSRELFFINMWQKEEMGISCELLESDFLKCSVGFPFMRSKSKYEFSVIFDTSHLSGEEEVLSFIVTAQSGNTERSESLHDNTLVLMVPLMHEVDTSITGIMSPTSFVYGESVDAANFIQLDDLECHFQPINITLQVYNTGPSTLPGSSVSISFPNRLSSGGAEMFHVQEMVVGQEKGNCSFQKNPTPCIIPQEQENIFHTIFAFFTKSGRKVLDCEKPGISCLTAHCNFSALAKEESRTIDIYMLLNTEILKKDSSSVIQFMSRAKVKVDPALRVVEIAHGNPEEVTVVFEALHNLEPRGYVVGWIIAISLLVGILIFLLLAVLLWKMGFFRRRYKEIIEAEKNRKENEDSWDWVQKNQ
T1 sequence (P05556 21-798 limits assumed, chain 2 of 2): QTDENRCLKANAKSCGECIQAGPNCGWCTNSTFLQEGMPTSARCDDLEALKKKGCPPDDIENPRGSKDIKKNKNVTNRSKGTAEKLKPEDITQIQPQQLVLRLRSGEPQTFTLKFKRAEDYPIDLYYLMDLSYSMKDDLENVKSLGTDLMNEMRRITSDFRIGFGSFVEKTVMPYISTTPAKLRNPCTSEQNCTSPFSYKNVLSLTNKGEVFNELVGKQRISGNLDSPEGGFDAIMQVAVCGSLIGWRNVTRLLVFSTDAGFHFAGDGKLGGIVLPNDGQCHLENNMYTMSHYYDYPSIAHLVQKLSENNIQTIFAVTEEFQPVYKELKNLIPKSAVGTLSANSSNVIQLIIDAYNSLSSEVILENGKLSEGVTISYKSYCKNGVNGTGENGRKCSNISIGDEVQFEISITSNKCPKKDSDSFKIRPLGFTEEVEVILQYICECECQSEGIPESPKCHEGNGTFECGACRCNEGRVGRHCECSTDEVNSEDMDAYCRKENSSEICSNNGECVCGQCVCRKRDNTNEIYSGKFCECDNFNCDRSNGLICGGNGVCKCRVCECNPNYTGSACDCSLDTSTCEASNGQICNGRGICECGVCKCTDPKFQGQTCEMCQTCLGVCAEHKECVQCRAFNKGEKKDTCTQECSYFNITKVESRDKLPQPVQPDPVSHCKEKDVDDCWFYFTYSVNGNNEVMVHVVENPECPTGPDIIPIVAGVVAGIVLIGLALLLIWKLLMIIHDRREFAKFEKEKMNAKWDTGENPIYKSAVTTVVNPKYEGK

B1: mouse Y9A2 antibody (antibody, V domains shown)
VH: QVQLQQSGAELANPGASVKMSCKASGYTLTTYWMHWVKQRPGQGLEWIGYINPSSGYTEYNQKFKDKATLTADKSSSTAYMQLTSLTSEDSAVYYCAIYGDYGDFYFDYWGQGTTLTVSS
VL: SIVMTQTPKFLLVSAGDRVTMTCKASQSVNTDVAWFQQKPGQSPKLLIYFASNHYTGVPDRFTGSGYGTDFTFTISTVQAEDLAIYFCRQDYSSPFTFGGGTKLEIKR
[1]
  specific activity (IC50 relative to mouse Y9A2 = 1), cell adhesion inhibition test on human Tenascin C-RAA: 1 ratio of IC50 to mouse Y9A2
  specific activity (IC50 relative to mouse Y9A2 = 1), cell adhesion inhibition test on human VCAM-1: 1 ratio of IC50 to mouse Y9A2
[2]
  IC50 (µg/mL), cell adhesion inhibition test, SW480/hα9 cells on nOPN-RAA: 0.039 µg/mL
[3]
  specific activity (IC50 relative to mouse Y9A2 = 1), cell adhesion inhibition test on nOPN-RAA: 1 ratio of IC50 to mouse Y9A2
[4]
  IC50 (µg/mL), cell adhesion inhibition test, SW480/hα9 cells on nOPN-RAA: 0.049 µg/mL
[5]
  average cell adhesion inhibitory activity IC50, SW480/hα9 cells on human Tenascin C-RAA: 0.041 µg/mL
  average cell adhesion inhibitory activity IC50, SW480/hα9 cells on human VCAM-1/Ig: 0.077 µg/mL
  average of IC50 values, cell adhesion inhibition test, SW480/hα9 cells on nOPN-RAA: 0.039 µg/mL
[6]
  IC50 (µg/mL), cell adhesion inhibition test, SW480/hα9 cells on nOPN-RAA: 0.025 µg/mL
[7]
  IC50 (µg/mL), cell adhesion inhibition test, SW480/hα9 cells on nOPN-RAA; value in parentheses, measured simultaneously with RY9A2v5(AL)01: 0.052 µg/mL
  IC50 (µg/mL), cell adhesion inhibition test, SW480/hα9 cells on nOPN-RAA; value in parentheses, measured simultaneously with RY9A2v5(AW)01: 0.037 µg/mL
  IC50 (µg/mL), cell adhesion inhibition test, SW480/hα9 cells on nOPN-RAA; value in parentheses, measured simultaneously with RY9A2v5(SW)01: 0.052 µg/mL
  IC50 (µg/mL), cell adhesion inhibition test, SW480/hα9 cells on nOPN-RAA; value in parentheses, measured simultaneously with RY9A2v5(WE)01: 0.052 µg/mL
[8]
  inhibitory rate (%) of migration of SW480/hα9 cell against nOPN-RAA, antibody at 5 µg/mL: 28%
[9]
  IC50 (µg/mL), cell adhesion inhibition test, SW480/hα9 cells on nOPN-RAA: 0.07 µg/mL

B2: chimeric Y9A2 antibody (antibody, V domains shown)
VH: B1 VH
VL: B1 VL
[2]
  IC50 (µg/mL), cell adhesion inhibition test, SW480/hα9 cells on nOPN-RAA: 0.038 µg/mL

B3: RY9A2v501 antibody (antibody, V domains shown)
VH: QVQLVQSGAEVKKPGSSVKMSCKASGYTLTTYWMHWVKQRPGQGLEWIGYINPSSGYTEYNQKFKDRVTITADKSTSTAYMELSSLRSEDTAVYYCAIYGDYGDFYFDYWGQGTTVTVSS
VL: DIQMTQSPSSLSASVGDRVTITCKASQSVNTDVAWYQQKPGKAPKLLIYFASNHYTGVPSRFSGSGSGTDFTFTISSLQPEDIATYYCRQDYSSPFTFGGGTKVEIKR
[9]
  IC50 (µg/mL), cell adhesion inhibition test, SW480/hα9 cells on nOPN-RAA: 0.054 µg/mL

B4: RY9A2v11(M34L)012 antibody (antibody, human IgG1, kappa, V domains shown)
VH: B3 VH with M34L, K65Q, D66G
VL: B3 VL with K24R
[1]
  specific activity (IC50 relative to mouse Y9A2 = 1), cell adhesion inhibition test on human Tenascin C-RAA: 0.35 ratio of IC50 to mouse Y9A2
  specific activity (IC50 relative to mouse Y9A2 = 1), cell adhesion inhibition test on human VCAM-1: 0.44 ratio of IC50 to mouse Y9A2
[3]
  specific activity (IC50 relative to mouse Y9A2 = 1), cell adhesion inhibition test on nOPN-RAA: 0.23 ratio of IC50 to mouse Y9A2
[8]
  inhibitory rate (%) of migration of SW480/hα9 cell against nOPN-RAA, antibody at 5 µg/mL: 84%

B5: RY9A2v5(WE)01 antibody (antibody, V domains shown)
VH: B3 VH with D104W, F105E
VL: B3 VL
[7]
  IC50 (µg/mL), cell adhesion inhibition test, SW480/hα9 cells on nOPN-RAA: 0.022 µg/mL

B6: RY9A2v5(AL)01 antibody (antibody, V domains shown)
VH: B3 VH with D104A, F105L
VL: B3 VL
[7]
  IC50 (µg/mL), cell adhesion inhibition test, SW480/hα9 cells on nOPN-RAA: 0.032 µg/mL

B7: RY9A2v5(AW)01 antibody (antibody, V domains shown)
VH: B3 VH with D104A, F105W
VL: B3 VL
[7]
  IC50 (µg/mL), cell adhesion inhibition test, SW480/hα9 cells on nOPN-RAA: 0.015 µg/mL

B8: RY9A2v5(SW)01 antibody (antibody, V domains shown)
VH: B3 VH with D104S, F105W
VL: B3 VL
[7]
  IC50 (µg/mL), cell adhesion inhibition test, SW480/hα9 cells on nOPN-RAA: 0.035 µg/mL

B9: RY9A2v11012 antibody (antibody, V domains shown)
VH: B3 VH with K65Q, D66G
VL: B3 VL with K24R
[6]
  IC50 (µg/mL), cell adhesion inhibition test, SW480/hα9 cells on nOPN-RAA: 0.008 µg/mL

B10: RY9A2v801 antibody (antibody, V domains shown)
VH: B3 VH with M20V, K38R, R40A, I48M
VL: B3 VL
[9]
  IC50 (µg/mL), cell adhesion inhibition test, SW480/hα9 cells on nOPN-RAA: 0.058 µg/mL

B11: RY9A2v5(M34I)01 antibody (antibody, V domains shown)
VH: B3 VH with M34I
VL: B3 VL
[4]
  IC50 (µg/mL), cell adhesion inhibition test, SW480/hα9 cells on nOPN-RAA: 0.024 µg/mL

B12: RY9A2v5(M34L)01 antibody (antibody, V domains shown)
VH: B3 VH with M34L
VL: B3 VL
[4]
  IC50 (µg/mL), cell adhesion inhibition test, SW480/hα9 cells on nOPN-RAA: 0.021 µg/mL

B13: RY9A2v11011 antibody (antibody, V domains shown)
VH: B3 VH with K65Q, D66G
VL: B3 VL with K24Q
[6]
  IC50 (µg/mL), cell adhesion inhibition test, SW480/hα9 cells on nOPN-RAA: 0.012 µg/mL

B14: RY9A2v12(M34L)012 antibody (antibody, human IgG1, kappa, V domains shown)
VH: B3 VH with M20V, M34L, K38R, R40A, I48M, K65Q, D66G
VL: B3 VL with K24R
[1]
  specific activity (IC50 relative to mouse Y9A2 = 1), cell adhesion inhibition test on human Tenascin C-RAA: 0.26 ratio of IC50 to mouse Y9A2
  specific activity (IC50 relative to mouse Y9A2 = 1), cell adhesion inhibition test on human VCAM-1: 0.95 ratio of IC50 to mouse Y9A2
[3]
  specific activity (IC50 relative to mouse Y9A2 = 1), cell adhesion inhibition test on nOPN-RAA: 0.23 ratio of IC50 to mouse Y9A2
[8]
  inhibitory rate (%) of migration of SW480/hα9 cell against nOPN-RAA, antibody at 5 µg/mL: 86%

B15: RY9A2v5(IAW)01 antibody (antibody, human IgG1, kappa, V domains shown)
VH: B3 VH with M34I, D104A, F105W
VL: B3 VL
[1]
  specific activity (IC50 relative to mouse Y9A2 = 1), cell adhesion inhibition test on human Tenascin C-RAA: 0.44 ratio of IC50 to mouse Y9A2
  specific activity (IC50 relative to mouse Y9A2 = 1), cell adhesion inhibition test on human VCAM-1: 1 ratio of IC50 to mouse Y9A2
[3]
  specific activity (IC50 relative to mouse Y9A2 = 1), cell adhesion inhibition test on nOPN-RAA: 0.29 ratio of IC50 to mouse Y9A2
[8]
  inhibitory rate (%) of migration of SW480/hα9 cell against nOPN-RAA, antibody at 5 µg/mL: 109%
